The source of these data is US5981720.

No end group written: not given here. *: point of attachment. βGlcNAc = CC(=O)N[C@@H]1[C@@H](O)[C@H](O)[C@@H](CO)O[C@H]1*

For experiment [1], the target named is yeast alpha-glucosidase (yeast).
For experiment [2] the target is unchanged. This is another data set of the same source.
For experiment [3] the target is unchanged. Particulars: scale: decrease of umole of glucose production from maltose per microgram of protein per hour.
For experiment [4] the target is unchanged. This is another data set of the same source.

As to GGN(βGlcNAc)K(pyridoxal 5‑phosphate) [pyridoxal 5-phosphate modified glycopeptide], the inhibitory effect on alpha-glucosidase activity (% increase in inhibitory effect) in experiment [1] was determined as 50.

B1: PNGase treated CON-1 (protein)
chain: SPPGKPQGPPPQGGNQPQGPPPPPGKPQGPPPQGGNKPQGPPPPGKPQGPPPQGDNKSQSARSPPGKPQGPPPQGGNQPQGPPPPPGKPQGPPPQGGNKSQGPPPPGKPQGPPPQGGSKSRSSR
modifications: carbohydrate moiety removed with PNGase
The molecule B1 came in with an alpha-glucosidase inhibition assay in experiment [2] of 50 percent.

B2: CON-1 (protein)
chain: SPPGKPQGPPPQGGNQPQGPPPPPGKPQGPPPQGGNKPQGPPPPGKPQGPPPQGDNKSQSARSPPGKPQGPPPQGGNQPQGPPPPPGKPQGPPPQGGNKSQGPPPPGKPQGPPPQGGSKSRSSR
modifications: glycoprotein; glycosylation occurs at one N-linked site (acetylglucosamine on asparagine of glycine-glycine-asparagine-lysine)
Regarding B2, in experiment [3], the Specific Inhibitory Activity was 2810.
In experiment [1], GGNK (acetylglucosamine cleaved off the asparagine with N-acetylglucosaminidase) [glycopeptide treated with N-acetylglucosaminidase] showed an inhibitory effect on alpha-glucosidase activity (% of inhibition lost) of 20.
In the case of GGN(βGlcNAc)K [synthetic glycopeptide Gylcyl-glycl-(NB-2-(acetylamino)-deoxy-2-B-pyranosyl)-asparaginyl-lysine], in experiment [4], the inhibitory effect on alpha-glucosidase activity stood at 90%.
